Results published in patent US20150368327A1 (YOKOHAMA CITY UNIVERSITY, published 2015).

T1: ovalbumin (OVA) (UniProt P01012 2-386)
T1 sequence (looked up): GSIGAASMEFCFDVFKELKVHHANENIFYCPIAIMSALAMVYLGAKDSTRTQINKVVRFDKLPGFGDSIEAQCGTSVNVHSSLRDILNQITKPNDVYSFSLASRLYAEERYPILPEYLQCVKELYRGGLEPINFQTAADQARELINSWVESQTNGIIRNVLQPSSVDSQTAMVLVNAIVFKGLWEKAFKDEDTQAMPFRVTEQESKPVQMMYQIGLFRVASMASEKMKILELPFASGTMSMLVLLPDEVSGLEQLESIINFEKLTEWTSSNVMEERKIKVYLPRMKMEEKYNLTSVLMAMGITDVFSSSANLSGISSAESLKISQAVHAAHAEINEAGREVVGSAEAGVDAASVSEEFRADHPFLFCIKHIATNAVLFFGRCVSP

T2: human Sema 3A protein (human, UniProt Q14563 21-771, limits assumed)
T2 construct: also called Human Sema 3A antigen; human-derived Sema 3A protein
T2 sequence (looked up): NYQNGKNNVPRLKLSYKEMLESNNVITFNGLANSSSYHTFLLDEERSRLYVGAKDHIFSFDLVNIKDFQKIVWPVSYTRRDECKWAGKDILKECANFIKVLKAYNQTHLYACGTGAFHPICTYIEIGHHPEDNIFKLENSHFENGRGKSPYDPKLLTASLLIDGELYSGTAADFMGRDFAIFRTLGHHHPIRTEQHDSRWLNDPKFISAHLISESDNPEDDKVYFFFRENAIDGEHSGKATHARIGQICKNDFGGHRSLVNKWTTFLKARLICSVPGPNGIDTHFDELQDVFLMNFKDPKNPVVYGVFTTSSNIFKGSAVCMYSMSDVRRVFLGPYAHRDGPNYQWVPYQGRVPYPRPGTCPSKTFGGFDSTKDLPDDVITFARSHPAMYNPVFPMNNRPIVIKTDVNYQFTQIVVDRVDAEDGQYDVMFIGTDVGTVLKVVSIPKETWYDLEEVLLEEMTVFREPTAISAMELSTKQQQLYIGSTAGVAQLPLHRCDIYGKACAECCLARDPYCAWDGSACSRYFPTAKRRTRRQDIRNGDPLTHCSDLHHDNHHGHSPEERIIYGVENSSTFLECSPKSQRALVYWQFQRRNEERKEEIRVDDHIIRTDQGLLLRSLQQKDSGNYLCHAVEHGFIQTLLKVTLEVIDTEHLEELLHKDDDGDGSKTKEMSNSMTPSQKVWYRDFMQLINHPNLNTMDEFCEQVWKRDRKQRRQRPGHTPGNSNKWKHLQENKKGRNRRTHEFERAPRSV

T3: mouse Sema 3A protein (mouse, UniProt O08665 21-772, limits assumed)
T3 construct: Produced from mouse Sema 3A protein expressing cells; also called Mouse Sema 3A antigen
T3 sequence (looked up): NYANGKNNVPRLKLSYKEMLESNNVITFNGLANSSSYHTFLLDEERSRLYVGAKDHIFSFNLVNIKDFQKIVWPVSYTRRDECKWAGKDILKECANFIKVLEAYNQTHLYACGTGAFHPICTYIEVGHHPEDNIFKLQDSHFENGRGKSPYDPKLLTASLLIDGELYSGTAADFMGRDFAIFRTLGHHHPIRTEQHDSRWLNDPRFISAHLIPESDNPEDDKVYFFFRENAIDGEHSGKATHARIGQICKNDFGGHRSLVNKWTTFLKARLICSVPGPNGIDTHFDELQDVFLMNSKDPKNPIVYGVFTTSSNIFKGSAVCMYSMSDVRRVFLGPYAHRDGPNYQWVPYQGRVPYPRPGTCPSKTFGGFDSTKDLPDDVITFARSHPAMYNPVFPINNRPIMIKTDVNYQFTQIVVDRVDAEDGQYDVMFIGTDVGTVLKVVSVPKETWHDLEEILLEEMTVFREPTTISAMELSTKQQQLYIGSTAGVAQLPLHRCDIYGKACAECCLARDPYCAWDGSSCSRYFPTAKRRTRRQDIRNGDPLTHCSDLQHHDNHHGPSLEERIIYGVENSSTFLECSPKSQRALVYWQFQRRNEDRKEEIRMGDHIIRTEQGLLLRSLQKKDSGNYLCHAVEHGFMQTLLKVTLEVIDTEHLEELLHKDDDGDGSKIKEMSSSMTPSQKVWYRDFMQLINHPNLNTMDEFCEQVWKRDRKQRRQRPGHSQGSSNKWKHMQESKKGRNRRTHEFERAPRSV


Experiments:
[1] = molecular target: bovine serum albumin (BSA) (bovine, UniProt P02769 25-607); test: antigen solid phase ELISA: coated BSA, anti-human lambda light chain-HRP, A450
Sequence of bovine serum albumin (BSA) (P02769 25-607 limits assumed): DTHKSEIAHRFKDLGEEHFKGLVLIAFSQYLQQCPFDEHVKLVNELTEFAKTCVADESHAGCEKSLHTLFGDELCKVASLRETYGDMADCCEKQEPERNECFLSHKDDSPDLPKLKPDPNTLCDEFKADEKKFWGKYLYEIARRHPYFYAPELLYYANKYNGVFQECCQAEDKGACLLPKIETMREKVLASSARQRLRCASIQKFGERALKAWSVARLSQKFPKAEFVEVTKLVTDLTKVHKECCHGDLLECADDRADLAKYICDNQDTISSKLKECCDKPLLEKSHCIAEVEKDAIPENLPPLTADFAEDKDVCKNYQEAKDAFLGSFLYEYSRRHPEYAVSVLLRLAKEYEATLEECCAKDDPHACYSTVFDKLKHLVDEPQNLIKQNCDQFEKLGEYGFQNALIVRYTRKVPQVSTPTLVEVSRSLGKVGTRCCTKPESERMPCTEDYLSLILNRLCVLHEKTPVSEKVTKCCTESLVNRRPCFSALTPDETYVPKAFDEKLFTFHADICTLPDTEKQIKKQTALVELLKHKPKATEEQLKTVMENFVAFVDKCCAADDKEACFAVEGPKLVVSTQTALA
Experimental: (§1) The obtained avian-mouse chimeric antibody in Example 1 and the obtained humanized antibodies (Humanized-1 and Humanized-2) and avian-human chimeric antibody in Example 2 were measured for antigenic specificity by antigen solid phase ELISA with PBS buffer. The obtained avian-mouse chimeric antibody in Example 1, which was labeled with biotin, was also measured for antigenic specificity. CL18M (+) avian-mouse chimeric antibody, which served as a negative control, was also measured for antigenic specificity. Particular measurement conditions were as follows.
(§2) Firstly, 2.5 μg/mL of antigen (mouse and human Sema 3A protein) was dispensed into a 384 Well MaxiSorp Plate (Nunc) and reacted overnight at 4° C. in order to coat the plate with the antigen. Otherwise, ovalbumin (OVA) and bovine serum albumin (BSA) were immobilized in the plate as negative controls in similar manner in order to examine specificity of antibodies. After reaction, the plate was washed three times with 50 μL/well of washing solution (PBS containing 0.05% Tween 20), to which was added 25 μL/well of blocking solution (PBS buffer containing 1% bovine serum albumin), and the mixture was reacted for 30 minutes. The resultant product was washed three times with 50 μL/well of washing solution, to which were added 20 μL/well of respective antibodies and the mixture was reacted for one hour. The resultant product was washed five times with 50 μL/well of washing solution, to which was added 20 μL of diluent in which anti-human λ light chain goat antibody labeled with horseradish peroxidase (HRP) (SouthernBiotech) was diluted 4000 times with PBS buffer, in which anti-mouse IgG2A goat antibody labeled with horseradish peroxidase (HRP) (Bethyl Laboratories, Inc.) was diluted 2000 times with PBS buffer or in which streptavidin labeled with horseradish peroxidase (HRP) (Thermo Fisher Scientific K.K.) was diluted 10000 times with PBS buffer and the mixture was reacted for one hour. […] The absorbance was measured at 450 nm using Infinite M1000 (Tecan Trading AG).

[2] = molecular target: T1, ovalbumin (OVA); test: antigen solid phase ELISA: coated ovalbumin, anti-human lambda light chain-HRP, A450
Experimental: as §1, §2

[3] = molecular target: T2, human Sema 3A protein; test: competitive ELISA on plate-coated human Sema 3A; competitor biotin-labelled avian-mouse chimeric antibody (clone No. 4-2) at 60 ng/mL
Experimental: (§3) The obtained clone No. 4-2-derived avian-mouse chimeric antibody in Example 1, the obtained humanized antibodies in Example 2 (Humanized-1 and Humanized-2) and avian-human chimeric antibody were subjected to competitive ELISA to evaluate affinity to the antigen. CL18M (+) avian-mouse chimeric antibody, which served as a negative control, was also measured for affinity to the antigen. Particular measurement conditions were as follows.
(§4) Firstly, 2.5 μg/mL of antigen (mouse and human Sema 3A protein) was dispensed into a 384 Well MaxiSorp Plate (Nunc) and reacted overnight at 4° C. in order to coat the plate with the antigen. The next day, the plate was washed three times with 50 μL/well of washing solution (PBS containing 0.05% Tween 20), to which was added 25 μL/well of blocking solution (PBS containing 1% bovine serum albumin) and the mixture was reacted for 30 minutes. Each of humanized antibodies (Humanized-1 and Humanized-2), avian-human chimeric antibody and avian-mouse chimeric antibody was subjected to serial doubling dilution, to which was mixed anti-Sema 3A avian-mouse chimeric antibody labeled with biotin to the final concentration of 60 ng/mL, and the mixture was reacted with the antigen solid phase plate which was washed three times with 50 μL/well of washing solution for one hour. The plate was washed five times with 50 μL/well of washing solution, to which was added 20 μL/well of diluent in which streptavidin labeled with horseradish peroxidase (HRP) (Thermo Fisher Scientific K.K.) was diluted 10000 times with PBS buffer and the mixture was reacted for 30 minutes. The plate was washed five times with 50 μL/well of washing solution, to which was added 20 μL/well of TMB+(Dako) and the mixture was chromogenically reacted for 20 minutes. Subsequently, to the each well was added 20 μL, of 1M sulfuric acid to quench the reaction. The absorbance was measured at 450 nm using Infinite M1000 (Tecan Trading AG).

[4] = molecular target: T3, mouse Sema 3A protein; test: competitive ELISA on plate-coated mouse Sema 3A; competitor biotin-labelled avian-mouse chimeric antibody (clone No. 4-2) at 60 ng/mL
Experimental: as §3, §4

[5] = molecular target: T2, human Sema 3A protein; test: direct solid phase ELISA screening with human Sema 3A as antigen

binding result [1] | binding result [2] | IC50 [3] [µg/mL] | IC50 [4] [µg/mL] | binding result [5] | Binder
no binding (tested: about 2 µg/mL) | no binding (tested: about 2 µg/mL) | 0.071 | 0.12 |  | Anti-Sema 3A humanized antibody (Humanized-1) (clone No. 4-2 strain-derived) (antibody, human IgG1, lambda, V domains shown, Human IgG1 heavy and human lambda light constant regions) VH: EVQLLESGGGLVQPGGSLRLSCAASGFTFSSYPMGWVRQAPGKGLEWVAGIDDDGDSDTRYAPAVKGRATISRDNSKNTVYLQMNSLRAEDTAVYYCAKHTGIGANSAGSIDAWGQGTLVTVSS VL: SYELTQPPSVSVSPGQTARITCSGGGSYTGSYYYGWYQQKPGQAPVTMIYYNNKRPSDIPERFSGSLSGTTNTLTISGVQAEDEADYYCGSADNSGDAFGTGTKVTVLG
no binding (tested: about 2 µg/mL) | no binding (tested: about 2 µg/mL) | 0.101 | 0.157 |  | Anti-Sema 3A humanized antibody (Humanized-2) (clone No. 4-2 strain-derived) (antibody, human IgG1, lambda, V domains shown, Human IgG1 heavy and human lambda light constant regions) VH: EVQLLESGGGLVQPGGSLRLSCAASGFTFSSYPMGWVRQAPGKGLEWVAGIDDDGDSDTRYAPAVKGRATISRDNSKNTVYLQMNSLRAEDTAVYYCAKHTGIGANSAGSIDAWGQGTLVTVSS VL: SYELTQPPSVSVSPGQTARITCSGGGSYTGSYYYGWYQQKPGQAPVTVIYYNNKRPSDIPERFSGSLSGTTNTLTISGVQAEDEADYYCGSADNSGDAFGTGTKVTVLG
no binding (tested: about 2 µg/mL) | no binding (tested: about 2 µg/mL) | 0.054 | 0.112 |  | Anti-Sema 3A avian-human chimeric antibody (clone No. 4-2-derived) (antibody, human IgG1) heavy: not shown light: ALTQPASVSANLGGTVKITCSGGGSYTGSYYYGWYQQKSPGSALVTMIYYNNKRPSDIPSRFSGSLSGSTNTLTITGVRADDEAVYFCGSADNSGDAFGAGTTLTVLGQPKANPTVTLFPPSSEELQANKATLVCLISDFYPGAVTVAWKADSSPVKAGVETTTPSKQSNNKYAASSYLSLTPEQWKSHRSYSCQVTHEGSTVEKTVAPTECS
 |  |  |  | binds | Anti-Sema 3A avian-mouse chimeric antibody (clone No. 165 strain-derived) (antibody, V domains shown, IgG from DT40 cells in which the constant region of chicken IgM was replaced with that of mouse IgG) VH: AVTLDESGGGLQTPGGGLSLVCKASGFTFSSYEMQWVRQAPGKGLEWVAGIYTGSTWYGAAVKGRATISRDNGQSTVRLQLNNLRAEDTAIYYCAKSGIGVNSAAFIDAWGHGTEVIVSS VL: ALTQPASVSANPGETVKITCSGGGSYGGSYYYGWYQQKAPGSAPVTVIYNNNKRPSNIPSRFSGSLSGSTNTLTITGVRADDEAVYFCGSADNSGTAFGAGTTLTVL
 |  |  |  | binds | Anti-Sema 3A avian-mouse chimeric antibody (clone No. 582 strain-derived) (antibody, V domains shown, IgG from DT40 cells in which the constant region of chicken IgM was replaced with that of mouse IgG) VH: AVTLDESGGGLQTPGGALSLVCKASGFTMSSYEMQWVRQAPGKGLEWVAAIYTRSTWYGAAVKGRATISRDNGQSTVRLQLNNLRAEDTGTYYCAKSGIGLNSAAFIDAWGHGTEVIVSS VL: ALTQPASVSANPGETVKITCSGGGSYGGSYYYGWYQQKAPGSAPVTVIYTNNKRPSNIPSRFSGSLSGSTNTLTITGVRADDEAVYFCGSADNSGTAFGAGTTLTVL
